Kd and EC50 data for four molecules are collected here from patent publication US20190248877A1 (Hoffmann-La Roche, published 2019).

The target in assay [1] is T1, cynoTNC (recombinant cynomolgus TnC antigen) (cynomolgus, biotin on the C-terminal avi-tag where used biotinylated (Example 5)).
T1 construct: GST may have been cleaved off by thrombin; The text says this construct lacks the C domain
T1 chain: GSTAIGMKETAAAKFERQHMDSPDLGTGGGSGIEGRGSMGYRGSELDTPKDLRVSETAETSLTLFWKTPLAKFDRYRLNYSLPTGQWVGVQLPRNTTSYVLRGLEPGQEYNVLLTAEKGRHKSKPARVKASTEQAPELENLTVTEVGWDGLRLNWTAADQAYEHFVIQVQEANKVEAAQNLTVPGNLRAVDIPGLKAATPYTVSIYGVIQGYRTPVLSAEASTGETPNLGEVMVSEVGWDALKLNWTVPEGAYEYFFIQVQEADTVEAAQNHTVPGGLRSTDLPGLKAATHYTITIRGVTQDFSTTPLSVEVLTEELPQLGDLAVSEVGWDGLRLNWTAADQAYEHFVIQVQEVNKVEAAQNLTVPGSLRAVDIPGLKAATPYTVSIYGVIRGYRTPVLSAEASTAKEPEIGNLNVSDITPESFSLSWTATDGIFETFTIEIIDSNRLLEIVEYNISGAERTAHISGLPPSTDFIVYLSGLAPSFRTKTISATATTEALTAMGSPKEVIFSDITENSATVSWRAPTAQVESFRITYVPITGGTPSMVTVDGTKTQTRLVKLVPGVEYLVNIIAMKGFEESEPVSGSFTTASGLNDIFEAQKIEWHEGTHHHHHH
Nature of the assay: SPR Biacore T200, biotinylated TnC on SA chip, IgG as analyte, 1:1 fit (apparent, bivalent). As to the method: (§1) Binding of the anti-TnC IgGs 18D4, 11C7 and the Fab fragment of anti-TnC 18D4 to human, murine and cynomolgus TnC (antigens according to Table 4) was assessed by surface plasmon resonance (SPR). All SPR experiments were performed on a Biacore T200 at 25° C. with HBS-EP as running buffer (0.01 M HEPES pH 7.4, 0.15 M NaCl, 3 mM EDTA, 0.005% Surfactant P20, Biacore, Freiburg/Germany).
(§2) A 20 μg/ml stock solution of biotinylated human, murine or cynomolgus TnC was injected on a SA chip, with the aim to immobilize up to 100 RU using the immobilization wizard function.
(§3) An additional dissociation step of 1800s was performed for the highest concentration of IgG. After each step the surface was regenerated following two sequential injections of 10 mM glycine pH2.1 for 60 s. Bulk refractive index differences were corrected for by subtracting the response obtained in a reference flow cell without TNC. Affinity and avidity were calculated using the Langmuir 1:1 kinetic model. However, as the KD for the 1:1 fitting of bivalent interactions is an apparent value only, it should only be used for comparisons.
On the technique in general: Surface plasmon resonance follows binding to a sensor surface in real time, without labels.

Assay [2] deals with T2, huTNC (recombinant human TnC antigen) (human, UniProt P24821 984-1798, biotin on the C-terminal avi-tag where used biotinylated (Examples 5 and 10)).
T2 sequence: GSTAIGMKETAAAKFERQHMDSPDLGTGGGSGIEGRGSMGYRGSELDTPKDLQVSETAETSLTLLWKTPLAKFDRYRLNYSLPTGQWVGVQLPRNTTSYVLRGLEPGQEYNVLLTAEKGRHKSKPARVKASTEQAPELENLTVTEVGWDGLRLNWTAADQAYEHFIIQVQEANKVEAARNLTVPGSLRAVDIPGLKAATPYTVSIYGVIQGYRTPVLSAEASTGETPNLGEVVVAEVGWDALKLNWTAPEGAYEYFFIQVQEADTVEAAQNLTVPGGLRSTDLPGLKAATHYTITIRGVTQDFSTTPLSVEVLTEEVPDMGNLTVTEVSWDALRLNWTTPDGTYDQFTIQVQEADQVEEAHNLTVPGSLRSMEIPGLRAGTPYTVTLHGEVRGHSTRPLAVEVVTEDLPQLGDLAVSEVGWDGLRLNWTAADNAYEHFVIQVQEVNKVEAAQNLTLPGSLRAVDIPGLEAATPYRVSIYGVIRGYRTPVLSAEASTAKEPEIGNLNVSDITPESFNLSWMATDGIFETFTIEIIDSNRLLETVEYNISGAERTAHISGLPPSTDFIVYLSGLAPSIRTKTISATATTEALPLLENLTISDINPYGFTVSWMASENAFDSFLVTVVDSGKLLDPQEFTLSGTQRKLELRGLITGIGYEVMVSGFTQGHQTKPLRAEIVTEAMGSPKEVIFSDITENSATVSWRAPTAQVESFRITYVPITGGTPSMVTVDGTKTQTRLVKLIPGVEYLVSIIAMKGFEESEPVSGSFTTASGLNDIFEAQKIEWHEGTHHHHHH
The assay is described as above. On the procedure: as §1, §2, §3

Assay [3] addresses T3, muTNC (recombinant murine TnC antigen) (mouse, biotin on the C-terminal avi-tag where used biotinylated (Example 5)).
T3 construct: GST may have been cleaved off by thrombin; The text says this construct lacks the C domain; also called mouse TnC
T3 chain: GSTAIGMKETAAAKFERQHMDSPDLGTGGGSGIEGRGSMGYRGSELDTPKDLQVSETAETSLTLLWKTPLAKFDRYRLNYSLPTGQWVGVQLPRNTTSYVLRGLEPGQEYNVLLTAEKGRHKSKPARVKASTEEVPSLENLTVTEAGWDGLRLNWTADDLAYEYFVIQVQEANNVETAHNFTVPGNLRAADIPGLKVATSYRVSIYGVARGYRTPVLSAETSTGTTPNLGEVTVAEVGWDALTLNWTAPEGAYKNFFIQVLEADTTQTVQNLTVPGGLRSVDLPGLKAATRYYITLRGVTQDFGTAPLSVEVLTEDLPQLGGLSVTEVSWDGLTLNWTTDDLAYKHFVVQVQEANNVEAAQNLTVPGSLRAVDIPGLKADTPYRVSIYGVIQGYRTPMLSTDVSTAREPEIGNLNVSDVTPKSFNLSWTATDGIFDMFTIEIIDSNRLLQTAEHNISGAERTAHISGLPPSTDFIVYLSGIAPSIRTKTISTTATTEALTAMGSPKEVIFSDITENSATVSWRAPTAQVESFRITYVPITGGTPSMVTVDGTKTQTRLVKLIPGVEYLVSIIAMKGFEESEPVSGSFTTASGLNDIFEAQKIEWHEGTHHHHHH
The assay is described as above. As to the method:
as §1, §2, §3

For assay [4], the target named is T4, human TnC on TnC-expressing U87-MG glioblastoma cells (human, UniProt P24821 23-2201).
T4 construct: whole, on cells; also called human-TnC expressing U87-MG
T4 sequence (P24821 23-2201): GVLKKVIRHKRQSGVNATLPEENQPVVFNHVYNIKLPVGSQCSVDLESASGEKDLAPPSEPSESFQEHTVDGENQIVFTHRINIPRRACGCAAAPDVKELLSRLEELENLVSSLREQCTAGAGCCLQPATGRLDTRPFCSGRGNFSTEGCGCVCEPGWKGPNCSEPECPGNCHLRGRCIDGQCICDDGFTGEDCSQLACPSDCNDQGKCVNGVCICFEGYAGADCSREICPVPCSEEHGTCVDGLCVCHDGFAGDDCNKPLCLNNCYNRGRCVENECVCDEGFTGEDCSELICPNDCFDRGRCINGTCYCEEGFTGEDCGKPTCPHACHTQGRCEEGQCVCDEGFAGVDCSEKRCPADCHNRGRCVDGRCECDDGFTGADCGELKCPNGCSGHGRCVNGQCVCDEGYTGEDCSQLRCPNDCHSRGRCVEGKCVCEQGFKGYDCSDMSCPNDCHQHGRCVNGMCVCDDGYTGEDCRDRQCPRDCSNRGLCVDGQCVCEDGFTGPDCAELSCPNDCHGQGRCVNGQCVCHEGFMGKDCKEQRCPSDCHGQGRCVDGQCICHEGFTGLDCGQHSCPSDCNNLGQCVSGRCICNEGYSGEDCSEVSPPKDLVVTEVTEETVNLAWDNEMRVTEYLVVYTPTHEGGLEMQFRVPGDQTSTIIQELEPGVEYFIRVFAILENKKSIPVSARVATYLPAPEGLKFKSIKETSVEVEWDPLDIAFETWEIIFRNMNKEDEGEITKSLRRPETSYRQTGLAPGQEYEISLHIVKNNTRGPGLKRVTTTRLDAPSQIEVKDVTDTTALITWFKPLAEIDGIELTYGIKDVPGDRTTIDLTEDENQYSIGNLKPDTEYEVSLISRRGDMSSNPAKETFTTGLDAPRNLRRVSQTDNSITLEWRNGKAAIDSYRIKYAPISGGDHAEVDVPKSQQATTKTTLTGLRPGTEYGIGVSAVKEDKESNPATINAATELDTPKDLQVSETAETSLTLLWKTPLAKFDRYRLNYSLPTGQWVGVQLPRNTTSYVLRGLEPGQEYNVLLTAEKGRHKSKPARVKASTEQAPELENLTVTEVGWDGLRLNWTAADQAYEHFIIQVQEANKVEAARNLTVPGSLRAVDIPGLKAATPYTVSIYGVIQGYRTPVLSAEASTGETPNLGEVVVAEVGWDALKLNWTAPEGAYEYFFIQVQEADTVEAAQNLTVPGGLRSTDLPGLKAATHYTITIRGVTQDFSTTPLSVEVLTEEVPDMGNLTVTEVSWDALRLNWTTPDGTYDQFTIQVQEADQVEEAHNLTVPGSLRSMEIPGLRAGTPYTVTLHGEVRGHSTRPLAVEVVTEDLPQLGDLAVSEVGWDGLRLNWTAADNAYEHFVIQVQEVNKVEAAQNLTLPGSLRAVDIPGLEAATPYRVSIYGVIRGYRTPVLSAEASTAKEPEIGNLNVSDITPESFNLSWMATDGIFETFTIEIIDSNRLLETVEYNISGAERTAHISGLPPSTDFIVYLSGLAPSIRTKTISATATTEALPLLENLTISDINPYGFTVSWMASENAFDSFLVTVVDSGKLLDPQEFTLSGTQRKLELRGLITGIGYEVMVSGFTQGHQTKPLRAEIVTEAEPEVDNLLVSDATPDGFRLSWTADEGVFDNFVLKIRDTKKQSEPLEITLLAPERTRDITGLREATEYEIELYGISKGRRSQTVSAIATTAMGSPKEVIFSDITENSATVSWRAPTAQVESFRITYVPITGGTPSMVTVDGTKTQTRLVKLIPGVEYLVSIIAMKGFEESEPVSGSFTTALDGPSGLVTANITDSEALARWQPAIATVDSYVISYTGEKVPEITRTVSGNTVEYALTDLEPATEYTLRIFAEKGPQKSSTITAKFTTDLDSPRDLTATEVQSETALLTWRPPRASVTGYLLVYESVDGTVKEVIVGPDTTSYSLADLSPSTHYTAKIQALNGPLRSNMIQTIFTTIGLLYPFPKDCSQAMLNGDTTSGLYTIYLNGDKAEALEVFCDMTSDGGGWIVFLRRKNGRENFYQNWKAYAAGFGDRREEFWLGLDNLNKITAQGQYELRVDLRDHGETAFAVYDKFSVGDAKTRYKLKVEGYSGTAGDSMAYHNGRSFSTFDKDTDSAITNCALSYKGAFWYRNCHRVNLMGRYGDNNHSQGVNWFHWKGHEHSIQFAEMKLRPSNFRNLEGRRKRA
Nature of the assay: flow cytometry on TnC-expressing U87-MG cells.

The target of assay [5] is T5, GST TNC hu fn5 B-C fn6 B (human, biotin on the C-terminal avi-tag (BirA, site-specific)).
T5 chain: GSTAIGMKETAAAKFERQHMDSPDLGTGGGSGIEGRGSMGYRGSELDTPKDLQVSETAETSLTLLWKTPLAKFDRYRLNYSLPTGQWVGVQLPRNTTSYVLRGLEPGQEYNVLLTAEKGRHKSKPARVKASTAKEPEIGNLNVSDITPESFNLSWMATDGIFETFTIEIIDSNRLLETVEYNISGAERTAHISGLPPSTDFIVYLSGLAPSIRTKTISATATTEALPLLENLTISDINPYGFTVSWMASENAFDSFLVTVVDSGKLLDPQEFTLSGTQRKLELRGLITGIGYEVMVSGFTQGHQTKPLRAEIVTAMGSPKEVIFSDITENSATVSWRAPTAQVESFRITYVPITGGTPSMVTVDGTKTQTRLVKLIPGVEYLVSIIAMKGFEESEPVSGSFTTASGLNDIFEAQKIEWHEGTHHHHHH
Description: SPR ProteOn XPR36, biotinylated antigen on NLC chip, Fab as analyte, 25 C. On the procedure: (§4) Immobilization of antigens (ligand): Recombinant antigens were diluted with PBST (10 mM phosphate, 150 mM sodium chloride pH 7.4, 0.005% Tween 20) to 10 μg/ml, then injected at 30 μl/minute in vertical orientation. Injection of analytes: For ‘one-shot kinetics’ measurements, injection direction was changed to horizontal orientation, two-fold dilution series of purified Fab were injected simultaneously along separate channels 1-5, with association times of 200 s, and dissociation times of 240 s, respectively. Buffer (PBST) was injected along the sixth channel to provide an “in-line” blank for referencing. Association rate constants (kₒₙ) and dissociation rate constants (koff) were calculated using a simple one-to-one Langmuir binding model in ProteOn Manager v3.1 software by simultaneously fitting the association and dissociation sensorgrams. The equilibrium dissociation constant (KD) was calculated as the ratio koff/kₒₙ.

The target of assay [6] is T6, GST huTNC fn5 A1234 BC fn6 B (human, UniProt P24821 984-1798, biotin on the C-terminal avi-tag (BirA, site-specific)).
T6 construct: also called Human GST-fused TnC fn5 A1234 BC fn6
T6 sequence: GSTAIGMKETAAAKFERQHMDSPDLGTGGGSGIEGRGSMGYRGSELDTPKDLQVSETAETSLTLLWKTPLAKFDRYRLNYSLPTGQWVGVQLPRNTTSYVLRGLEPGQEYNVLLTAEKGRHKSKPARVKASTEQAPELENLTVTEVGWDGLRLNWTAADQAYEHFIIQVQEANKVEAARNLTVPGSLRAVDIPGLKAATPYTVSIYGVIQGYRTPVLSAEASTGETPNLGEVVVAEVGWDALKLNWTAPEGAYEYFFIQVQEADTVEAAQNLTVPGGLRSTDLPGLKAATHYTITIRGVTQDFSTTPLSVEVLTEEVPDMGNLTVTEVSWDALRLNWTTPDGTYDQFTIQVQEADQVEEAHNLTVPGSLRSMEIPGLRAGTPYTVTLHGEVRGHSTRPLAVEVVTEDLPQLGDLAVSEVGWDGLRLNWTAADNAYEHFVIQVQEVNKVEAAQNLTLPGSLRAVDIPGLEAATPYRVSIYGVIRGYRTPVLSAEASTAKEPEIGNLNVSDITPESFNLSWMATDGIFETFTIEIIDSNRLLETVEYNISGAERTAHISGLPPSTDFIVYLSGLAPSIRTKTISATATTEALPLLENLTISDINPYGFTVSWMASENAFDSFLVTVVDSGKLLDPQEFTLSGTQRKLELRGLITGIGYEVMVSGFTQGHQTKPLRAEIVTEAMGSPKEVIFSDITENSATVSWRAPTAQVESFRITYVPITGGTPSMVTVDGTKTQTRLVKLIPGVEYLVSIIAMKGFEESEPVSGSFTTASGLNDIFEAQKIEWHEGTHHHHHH
Described as above. On the procedure:
as §4

B1: anti-TnC 18D4 wild type human IgG1 (antibody)
heavy: not shown
light: DIQMTQSPSTLSASVGDRVTITCRASQSISSWLAWYQQKPGKAPKLLIYDASSLESGVPSRFSGSGSGTEFTLTISSLQPDDFATYYCQQNKKFPSGTFGQGTKVEIKRTVAAPSVFIFPPSDEQLKSGTASVVCLLNNFYPREAKVQWKVDNALQSGNSQESVTEQDSKDSTYSLSSTLTLSKADYEKHKVYACEVTHQGLSSPVTKSFNRGEC
notes: also called 18D4 IgG wt Fc; a-TnC(18D4) huIgG1
Consider B1, for which the Kd stood at 0.036 nM in assay [1], 0.093 nM in assay [2] and 0.061 nM in assay [3].

B2: anti-TnC(18D4) huIgG1 P329G LALA (antibody)
heavy: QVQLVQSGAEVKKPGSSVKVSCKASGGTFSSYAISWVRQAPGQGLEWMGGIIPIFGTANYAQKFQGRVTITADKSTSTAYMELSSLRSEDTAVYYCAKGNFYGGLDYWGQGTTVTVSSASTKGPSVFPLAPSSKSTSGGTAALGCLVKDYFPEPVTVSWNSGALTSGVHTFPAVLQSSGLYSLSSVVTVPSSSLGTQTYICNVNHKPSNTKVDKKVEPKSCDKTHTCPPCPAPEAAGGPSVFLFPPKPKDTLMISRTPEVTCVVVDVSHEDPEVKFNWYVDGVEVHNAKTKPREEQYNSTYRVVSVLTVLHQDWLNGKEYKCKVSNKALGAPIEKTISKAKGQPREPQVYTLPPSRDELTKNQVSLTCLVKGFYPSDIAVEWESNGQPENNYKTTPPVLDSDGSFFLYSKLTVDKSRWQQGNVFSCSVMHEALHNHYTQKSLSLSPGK
light: DIQMTQSPSTLSASVGDRVTITCRASQSISSWLAWYQQKPGKAPKLLIYDASSLESGVPSRFSGSGSGTEFTLTISSLQPDDFATYYCQQNKKFPSGTFGQGTKVEIKRTVAAPSVFIFPPSDEQLKSGTASVVCLLNNFYPREAKVQWKVDNALQSGNSQESVTEQDSKDSTYSLSSTLTLSKADYEKHKVYACEVTHQGLSSPVTKSFNRGEC
notes: also called 18D4 IgG PG/LALA; 18D4 IgG PGLALA
As usually defined, the EC50 is the concentration giving half of the maximal effect. Read a high EC50 as lower potency in that assay. As for B2, the Kd in assay [1] came to 0.011 nM; in assay [2] it was 0.032 nM; in assay [3], 0.03 nM. This molecule gave an EC50 in assay [4] of 4.24 nM.

B3: anti-TnC clone 11C7 rabbit IgG (antibody, V domains shown)
VH: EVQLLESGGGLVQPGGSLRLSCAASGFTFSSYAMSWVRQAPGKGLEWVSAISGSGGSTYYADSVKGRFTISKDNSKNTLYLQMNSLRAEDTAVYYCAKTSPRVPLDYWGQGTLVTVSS
VL: SSELTQDPAVSVALGQTVRVTCQGDSLRSYYASWYQQKPGQAPVLVIYGKNNRPSGIPDRFSGSSSGNTASLTITGAQAEDEADYYCNSINSTRNEVFGGGTKLTVL
notes: also called llC7 rb IgG; 11C7 (rb IgG)
As for B3, in assay [2], the Kd was determined as 0.029 nM.

B4: anti-TnC clone 11C7 Fab (Fab, V domains shown)
VH: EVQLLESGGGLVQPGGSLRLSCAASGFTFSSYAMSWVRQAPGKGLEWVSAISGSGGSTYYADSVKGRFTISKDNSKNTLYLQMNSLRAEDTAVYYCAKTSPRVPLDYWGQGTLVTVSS
VL: SSELTQDPAVSVALGQTVRVTCQGDSLRSYYASWYQQKPGQAPVLVIYGKNNRPSGIPDRFSGSSSGNTASLTITGAQAEDEADYYCNSINSTRNEVFGGGTKLTVL
notes: Bacterially expressed purified Fab from the lambda-DP47 phage library format (lambda CL, CH1, tags)
As to B4, the Kd in assay [5] was 1 nM; in assay [6], 2.3 nM.
